B1: hAb18-8 (antibody, human IgG1, kappa, L234A L235A, V domains shown)
VH: EVQLVQSGAEVKKPGASVKVSCKASGYTFTDYAMHWVRQAPGQRLEWMGVISTYSGTTNYNQNFKGRVTITVDKSASTAYMELSSLRSEDTAVYYCARSGPLDYWGQGTTVTVSS
VL: ENVLTQSPDFQSVTPKEKVTITCRATSSVSSSYLHWYQQKPDQSPKLWIYSTSQLASGVPSRFSGSGSGTDYTLTINSLEAEDAATYYCQQYSGYPLTFGQGTKLEIKR
notes: human IgG1 (L234A, L235A) / kappa
B2: hAb99-13 (antibody, human IgG1, kappa, L234A L235A, V domains shown)
VH: EVQLVQSGAEVKKPGASVKVSCKASGYTFTNYGINWVRQAPGQRLEWMGYIYIGNVDIEYNAKFKGRVTITSDTSASTAYMELSSLRSEDTAVYYCARGRGLGHFDVWGQGTTVTVSS
VL: DIQMTQSPSSLSASVGDRVTITCRASKSISKFLAWFQQKPGKTNKLLIYSGSTLQSGVPSRFSGSGSGTDFTLTISSLQPEDFATYYCQQHNEYPWTFGGGTKVEIKR
notes: as for B1

Experiments:
[1] = target: T1, human KLB&FGFR1c complex on cells (human, UniProt Q86Z14 1-1044; P11362 22-822); assay: cell-based or functional assay
T1 sequence (P11362 22-822, one chain of several): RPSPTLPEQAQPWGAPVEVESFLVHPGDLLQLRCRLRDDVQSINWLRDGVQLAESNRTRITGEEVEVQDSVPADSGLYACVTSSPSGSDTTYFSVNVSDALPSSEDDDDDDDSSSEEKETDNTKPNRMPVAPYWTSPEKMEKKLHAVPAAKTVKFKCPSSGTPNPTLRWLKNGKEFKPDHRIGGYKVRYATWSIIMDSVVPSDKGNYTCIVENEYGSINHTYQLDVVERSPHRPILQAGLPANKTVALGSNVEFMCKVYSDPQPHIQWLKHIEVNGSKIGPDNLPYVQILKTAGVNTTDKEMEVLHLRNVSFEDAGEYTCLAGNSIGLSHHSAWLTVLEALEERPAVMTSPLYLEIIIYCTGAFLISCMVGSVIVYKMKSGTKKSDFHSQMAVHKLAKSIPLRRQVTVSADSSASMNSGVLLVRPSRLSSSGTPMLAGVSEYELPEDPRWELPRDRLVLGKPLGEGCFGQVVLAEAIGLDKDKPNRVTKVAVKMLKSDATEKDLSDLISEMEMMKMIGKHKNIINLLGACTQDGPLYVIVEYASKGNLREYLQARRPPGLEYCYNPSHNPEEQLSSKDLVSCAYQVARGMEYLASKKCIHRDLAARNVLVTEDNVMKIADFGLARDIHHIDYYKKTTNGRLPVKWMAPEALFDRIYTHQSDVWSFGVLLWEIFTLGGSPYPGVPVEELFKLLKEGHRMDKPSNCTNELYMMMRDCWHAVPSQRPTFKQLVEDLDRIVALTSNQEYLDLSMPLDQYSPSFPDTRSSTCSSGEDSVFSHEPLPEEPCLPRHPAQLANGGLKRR

[2] = target: T2, human KLB on CHOK1-hKLB cells (human, UniProt Q86Z14 1-1044); assay: flow cytometry on CHOK1-hKLB cells
T2 construct: whole, on cells; also called human KLB antigen; β-Klotho
T2 sequence (looked up): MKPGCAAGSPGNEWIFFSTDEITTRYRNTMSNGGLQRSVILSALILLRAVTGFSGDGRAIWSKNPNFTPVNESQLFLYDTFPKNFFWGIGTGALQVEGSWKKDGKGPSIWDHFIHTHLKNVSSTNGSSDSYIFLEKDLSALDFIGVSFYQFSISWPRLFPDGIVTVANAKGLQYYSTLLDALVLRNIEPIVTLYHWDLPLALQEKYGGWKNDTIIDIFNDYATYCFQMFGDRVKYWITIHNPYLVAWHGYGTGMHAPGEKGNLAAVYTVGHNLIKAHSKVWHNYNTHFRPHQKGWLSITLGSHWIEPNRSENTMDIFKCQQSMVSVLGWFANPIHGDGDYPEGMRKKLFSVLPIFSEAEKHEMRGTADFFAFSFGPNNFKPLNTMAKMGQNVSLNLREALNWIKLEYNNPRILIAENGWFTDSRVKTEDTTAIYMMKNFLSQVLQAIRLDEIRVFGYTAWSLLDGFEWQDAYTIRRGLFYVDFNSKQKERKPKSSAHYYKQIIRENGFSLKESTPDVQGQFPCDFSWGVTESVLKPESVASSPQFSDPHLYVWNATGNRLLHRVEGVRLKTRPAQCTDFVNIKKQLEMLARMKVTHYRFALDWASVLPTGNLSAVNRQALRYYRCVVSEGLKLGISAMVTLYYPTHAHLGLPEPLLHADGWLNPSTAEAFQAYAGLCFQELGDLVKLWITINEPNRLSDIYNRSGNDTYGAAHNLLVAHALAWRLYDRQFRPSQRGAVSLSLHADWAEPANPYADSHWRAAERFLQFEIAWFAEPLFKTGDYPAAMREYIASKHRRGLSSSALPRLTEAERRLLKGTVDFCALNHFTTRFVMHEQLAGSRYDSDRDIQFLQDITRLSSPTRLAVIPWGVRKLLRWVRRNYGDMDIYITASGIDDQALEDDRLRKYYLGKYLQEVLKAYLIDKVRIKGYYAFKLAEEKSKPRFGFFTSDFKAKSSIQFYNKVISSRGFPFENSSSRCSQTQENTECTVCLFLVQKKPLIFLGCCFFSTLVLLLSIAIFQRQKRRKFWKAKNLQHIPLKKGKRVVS
From the text: The above heavy chain variable regions were fused to the heavy chain constant region (set forth in SEQ ID NO: 22) and the light chain variable regions were fused to the light chain constant region (set forth in SEQ ID NO: 23) to construct anti-KLB antibodies, and the binding activity of the obtained antibodies for CHOK1-hKLB was detected (see Test Example 2 of the present disclosure for the experimental method).
The binding ability of the antibodies for CHOK1 cell strains CHOK1-hKLB and CHOK1-cynoKLB overexpressing human KLB and monkey KLB (see Example 1 for specific preparation procedure), respectively, was detected by flow cytometry. The specific procedure was as follows: the above cells were cultured in 10% FBS-containing IMDM medium and incubated in an incubator at 37° C. and 5% CO₂ for 2 days. The cells were then added to a cell plate at 1×10⁵ cells per well, centrifuged at 300 g for 5 min, and then washed once with 1% BSA. The antibody diluted in gradient was added to the cell plate at 100 μL per well, and the mixture was incubated at 4° C. for 1 h and washed once with 1% BSA. The diluted (1:400) APC-goat anti-human IgG Fc fluorescent secondary antibody was added at 100 μL per well, and the resulting mixture was incubated at 4° C. for 1 h. The plate was washed three times with 1% BSA, PBS was added at 100 μL per well, and the plate was read.

[3] = target: T1, human KLB&FGFR1c complex on cells; assay: cell-based or functional assay; remark: listed apart in the source

Binder | Activation fold, SRE-Luc2P reporter in HEK293T-hKLB&hFGFR1c cells [1] [fold] | EC50 (nM), SRE-Luc2P reporter in HEK293T-hKLB&hFGFR1c cells [1] [nM] | EC50 [2] [nM] | Activation fold, GAL4-Elk1 luciferase reporter in CHOK1-hKLB&hFGFR1c cells [3] [fold] | EC50 (nM), GAL4-Elk1 luciferase reporter in CHOK1-hKLB&hFGFR1c cells [3] [nM]
B1 | 2.29 | 5.35 | 2.5 | – | –
B2 | 3.57 | 2.62 | 0.32 | 14.3 | 0.19

— US20240270874A1 (JIANGSU HENGRUI PHARMACEUTICALS, published 2024)
